In experiment [1] the target is IGF-1R on SW480 cells, P08069. The experiment in a line: cell-based or functional assay.
Experiment [2] addresses IGF-1R on MCF-7 cells (MCF-7S8, MCF7) (human), P08069. Put plainly: cell-based or functional assay.

Where only a bound is given, the exact number is not on record here.

Sequence of IGF-1R on SW480 cells, P08069 (P08069 31-1367 limits assumed): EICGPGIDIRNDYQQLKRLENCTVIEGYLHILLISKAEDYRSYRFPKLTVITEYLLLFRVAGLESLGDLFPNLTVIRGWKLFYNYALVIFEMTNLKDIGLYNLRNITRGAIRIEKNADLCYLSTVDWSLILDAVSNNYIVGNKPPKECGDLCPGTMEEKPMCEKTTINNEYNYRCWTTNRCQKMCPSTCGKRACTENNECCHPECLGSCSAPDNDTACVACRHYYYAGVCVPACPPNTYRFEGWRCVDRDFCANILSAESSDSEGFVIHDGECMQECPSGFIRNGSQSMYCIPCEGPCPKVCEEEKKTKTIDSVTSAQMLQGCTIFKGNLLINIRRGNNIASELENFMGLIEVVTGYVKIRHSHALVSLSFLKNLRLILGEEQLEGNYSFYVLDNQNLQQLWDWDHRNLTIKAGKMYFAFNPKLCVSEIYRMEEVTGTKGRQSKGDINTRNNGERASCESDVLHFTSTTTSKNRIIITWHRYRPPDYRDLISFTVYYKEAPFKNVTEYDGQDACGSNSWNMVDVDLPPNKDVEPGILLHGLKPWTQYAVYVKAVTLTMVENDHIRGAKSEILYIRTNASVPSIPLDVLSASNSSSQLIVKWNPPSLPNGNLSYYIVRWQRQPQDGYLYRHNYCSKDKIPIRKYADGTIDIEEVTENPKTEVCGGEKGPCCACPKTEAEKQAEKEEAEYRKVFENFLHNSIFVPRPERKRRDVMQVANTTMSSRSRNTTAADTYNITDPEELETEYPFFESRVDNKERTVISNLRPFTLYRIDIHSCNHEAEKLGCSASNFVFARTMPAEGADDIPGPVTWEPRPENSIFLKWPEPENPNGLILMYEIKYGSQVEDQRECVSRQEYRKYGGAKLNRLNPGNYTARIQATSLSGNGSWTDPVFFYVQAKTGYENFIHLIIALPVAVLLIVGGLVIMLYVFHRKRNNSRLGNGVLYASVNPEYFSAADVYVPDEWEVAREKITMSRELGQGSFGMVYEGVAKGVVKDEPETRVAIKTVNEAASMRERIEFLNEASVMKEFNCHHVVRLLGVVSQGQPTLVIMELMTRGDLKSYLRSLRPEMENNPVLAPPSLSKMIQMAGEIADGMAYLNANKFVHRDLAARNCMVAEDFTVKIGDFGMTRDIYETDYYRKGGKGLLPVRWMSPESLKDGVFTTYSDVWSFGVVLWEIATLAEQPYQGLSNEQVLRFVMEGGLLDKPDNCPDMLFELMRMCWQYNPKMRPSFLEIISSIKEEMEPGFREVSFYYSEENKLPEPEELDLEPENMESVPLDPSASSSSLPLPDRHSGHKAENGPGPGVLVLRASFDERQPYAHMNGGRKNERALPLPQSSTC
Sequence of IGF-1R on MCF-7 cells (MCF-7S8, MCF7) (human), P08069 (P08069 31-1367): as the sequence (P08069 31-1367 limits assumed) above

Turning to SFYSCLESLVNGGAERSDGQWEGCR (modifications not checked) [F113], in experiment [1], the IC50, IGF-1 (10 nM)-induced proliferation of SW480 cells, exp. 13262-015 was greater than 10 µM and the IC50, IGF-1 (10 nM)-induced proliferation of SW480 cells, exp. 13262-016 is greater than 10 µM. Also, the Cell in experiment [2] amounted to 1000 nM.

The record behind these values is patent publication US20110039779A1, “IGF-1R BINDING PROTEINS AND ANTAGONISTS” (priority 2007, published 2011).
